Data published in the nanobody polyreactivity screen of Harvey et al. (2022).

Test: yeast display, Sf9 membrane polyspecificity reagent, FACS + sequencing; frameworks hold sequencing errors
In short: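 A synthetic nanobody library was expressed on Saccharomyces cerevisiae BJ5465 by galactose induction for 36–48 hours. The library was stained for 1 hour at 4 °C with 10% biotinylated, detergent-solubilized Sf9 membrane reagent and enriched with streptavidin microbeads before FACS. Low and high (top ~1%) gates were set on anti-HA fluorescence for expression and streptavidin fluorescence for reagent binding, and each polyreactivity label reflects the gate of origin.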

Row | Sequence | polyreactivity (PSR sort gate)
1 | QVQLVESGGGLVQAGGSLRLSCAASGITFVRYAMAWYRQAPGKEREFVAAINSIVGRTYYADSVKGRFTISRDNAKNTVYLQMNSLKPEDTAVYYCAADSNVRFGMDYWGQGTQVTVSS | low polyreactivity
2 | QVQLVESGGGLVQAGGSLRLSCAASGITFVRYAMGWYRQAPGKEREFVARISRSGASTYYADSVKGRFTISRDNAKNTVYLQMNSLKPEDTAVYYCNKVYISREDYWGQGTQVTVSS | high polyreactivity
3 | QVQLVESGGGLVQAGGSLRLSCAASGITFVRYAMGWYRQAPGKERELVAAINFSGGNTYYADSVKGRFTISRDNAKNTVYLQMNSLKPEDTAVYYCAAKRQYKRSRMYYWGQGTQVTVSS | high polyreactivity
4 | QVQLVESGGGLVQAGGSLRLSCAASGITFVYNAMGWYRQAPGKERELVAAIDFGAGSTYYADSVKGRFTISRDNAKNTVYLPMNSLKPEDTAVYYCAAGAARWYWPYDYWGQGTQVTVSS | low polyreactivity
5 | QVQLVESGGGLVQAGGSLRLSCAASGITFWAYAMGWYRPAPGKARELVAAITSGGSTNYADSVKGRFTISRDNAKNTVYLQLNSLKPEDTAVYYCAADWAYYSTALDYWGQGTQVTVSS | low polyreactivity
6 | QVQLVESGGGLVQAGGSLRLSCAASGITFWDYAMGWYRQAPGKERELVAGISTRGGSTYYADSVKGRFTISRDNEKNTVYLQMNSLKPEDTAVYYCATDDPLSQINEQGMDYWGQGTQVTVSS | low polyreactivity
7 | QVQLVESGGGLVQAGGSLRLSCAASGITFWDYAMGWYRQAPGKERELVAGITSRGGSTYYADSVKGRFTISRDNAKNTVYLQMNSLKPADTGVNSCNAYRLHSRRYYYWGQGTQVTVSS | low polyreactivity
8 | QVQLVESGGGLVQAGGSLRLSCAASGITFWGYAMGWYRQAPGKEREFVARINWSGGRTYYAESVKGRFTISRDNAKNTVYLQMNSLKPEDTAVYYCAATSLIYCYRTYYYWGQGTQVTVSS | high polyreactivity
9 | QVQLVESGGGLVQAGGSLRLSCAASGITFWGYAMGWYRQAPGKERELVAAISKTGGSTYYADSVKGRFTISRDNAKNTVYLQMNSLKPEDTAVYYCNTVTANGDFGYWGQGTQVTVSS | low polyreactivity
10 | QVQLVESGGGLVQAGGSLRLSCAASGITFWGYVMGWYRQAPGKERELVAAISSSGGRTYYADSVKGRFTISRDNAKNTVYLQMNSLKPEDTAVYYCAARFLYANRYSVDYDYWGQGTQVTVSS | high polyreactivity
11 | QVQLVESGGGLVQAGGSLRLSCAASGITFWLYAMGWYRQAPGKERELVAAITSGGSTTYADSVKGRFTISRDNAKNTVFLQMYSLKPEDSAVYYCNAEYQDWFGRLDYWGQGTQVTVSS | high polyreactivity
12 | QVQLVESGGGLVQAGGSLRLSCAASGITFWLYAMGWYRQAPGKERELVAGIDNGGSTTYADSVKGRFTISRDNAKNTVYLQMNILKPEDTAVYYCAATFEWDPVYPYNGFIYDYWGQGTQVTVSS | high polyreactivity
13 | QVQLVESGGGLVQAGGSLRLSCAASGITFWRYAMGWYRQAPGKERELVAAINSGGGTKFADSVKGRFTISRDNAKNTVYLQMNSLKPEDTAVYYCAAKYVFTLHRYDYWGQGTQVTVSS | high polyreactivity
14 | QVQLVESGGGLVQAGGSLRLSCAASGITFWRYAMGWYRQAPGKERELVAAIRWSGSTYADSVKGRFTISRDNAKNTVYLQMNSLKPEDTAVYYCAAYPIGGYHDMDYWGQGTQVTVSS | high polyreactivity
15 | QVQLVESGGGLVQAGGSLRLSCAASGITFWYYAMGWYRQAPGKERELVARIRRSGGSTYYADSVKGRFTISRDNAKNTVYLQMNSLKPEDTAVYYCAAEPRWTAVYQGAERFYYWGQGTQVTVSS | high polyreactivity
16 | QVQLVESGGGLVQAGGSLRLSCAASGITFWYYAMGWYRQAPGKERELVAVISRGGSTYYADSVKGRFTISRDNAKNTVYLQMNSLKPEDTAVYYCAADVSVSGYYYWGQGTQVTVSS | high polyreactivity

Row | Sequence | polyreactivity (PSR sort gate)
17 | QVQLVESGGGLVQAGGSLRLSCAASGITFYANAMGWYRQAPGKERELVATISYRGGSTYYADSVKGRFTISRDNAKNTVYLQMNSLKPEDTAVYYCAARRRRTSNTRVEHNYWGQGTQVTVSS | high polyreactivity
18 | QVQLVESGGGLVQAGGSLRLSCAASGITFYANTMGWYRQAPGKERELVAAISGIGGSTYYADSVMGRFAISRDNAKNTVYLQMNSLKPEDTAVYYCNADVYYFLFGTFDYWGQGTQVTVSS | low polyreactivity
19 | QVQLVESGGGLVQAGGSLRLSCAASGITFYAYAMGWYRQAPGKERELVAAITSSGSSTYYADSVKGRFTISRDNAKNTVYLQMISLKPEDSAVYYCAARRYRSVRNDYWGQGTQVTVSS | high polyreactivity
20 | QVQLVESGGGLVQAGGSLRLSCAASGITFYDYAMGWYRQAPGKERELVAAISDSGGITYYADSVKGRFTISRDNAKNTVYLQMNSLKPEDTAVYYCNAKSVRRERYKFDYWGQGTQVTVSS | high polyreactivity
21 | QVQLVESGGGLVQAGGSLRLSCAASGITFYDYAMGWYRQAPGKERELVAAISFSGSRTYYADSVKGRFTISRDHAKNTVSLQMNSLKPDDTAVYYCAASQASNYKIYDYWGQGTQVTVSS | high polyreactivity
22 | QVQLVESGGGLVQAGGSLRLSCAASGITFYDYDMGWYRQAPGKERELVAAINSGASTSYADSVKGRFTISRDNAKNTVYLQMNSLKPEDTAVYYCNADVRVDYLSGDLDYWGQGTQVTVSS | low polyreactivity
23 | QVQLVESGGGLVQAGGSLRLSCAASGITFYDYPMGWYRQAPGKERELVAAITSSGGRTYYADSVKGRFTISRDNAKNTVYLQMNSLKPEDTAVYYCAASTYPHEYDYWGQGTQVTVSS | low polyreactivity
24 | QVQLVESGGGLVQAGGSLRLSCAASGITFYEYAMGWYRQAPGKEREFVAAIDDGDSSTYYADSVKGRFTISRDNAKNTVYLQMNSLKPEDTAVYYCNADPYYDYSLNWGDYWGQGTQVTVSS | low polyreactivity
25 | QVQLVESGGGLVQAGGSLRLSCAASGITFYFNAMGWYRQAPGKERELVAAITFSGSSTYYADSVKGRFTISRDNAKNTVYLQMNSQKPEDSAVYYCAAYLTRYDFRWHTYYYWGLGTQVTVSS | low polyreactivity
26 | QVQLVESGGGLVQAGGSLRLSCAASGITFYFNAMGWYRQAPGKERELVAANTSGGGSTYYADSVKGRFTISRDNAKNTVYLQRNSLKPEDTAVYYCAAEWSYGGMDYWGQGTQVTVSS | low polyreactivity
27 | QVQLVESGGGLVQAGGSLRLSCAASGITFYGNAMGWYRQAPGKERELVAAIRRGGSTNYADSVKGRFTISRDNAKNTVYLQMNSLKPEDTALYYCAADRYGYTYRNYRVGYWGQGTQVTVSS | high polyreactivity
28 | QVQLVESGGGLVQAGGSLRLSCAASGITFYGNAMGWYRQAPGKERELVAGISSGGSTSYADSVKGRFTISRDNAKNTVYLQMDSLKPEDTAVYYCAKRWYYGTRYGTSYIRDYWGQGTQVTVSS | high polyreactivity
29 | QVQLVESGGGLVQAGGSLRLSCAASGITFYGYAMGWYRQAPGKERELVAAITSGGSTNYADSVKGRFTISRDNAKNTVYLQMNSLKPEDTAVYYCAADLWAYGYYYVGYDYWGQGTQVTVSS | low polyreactivity
30 | QVQLVESGGGLVQAGGSLRLSCAASGITFYGYAMGWYRQAPGKERELVAVITPSGSSTYYADSVKGRFTISRDNAKNTVYLQMNSLIPEDTAVYYCNARPGRRSLRSRTYDYWGQGTQVTVSS | high polyreactivity
31 | QVQLVESGGGLVQAGGSLRLSCAASGITFYGYTMGWYRQAPGKERELVAAITSGGNTYYADSVKGRFTISRDNAKNPVYLQMNCLKPEDTAVYYCAARRYCYTSITWCDYWRQGTQVTVSS | high polyreactivity
